For assay [1], the target named is Fc-tagged human IL-2Rα (Acro, ILA-H5251) (human) (UniProt P01589). Kind of assay: SPR; Biacore 8K; Fc-tagged receptors captured by immobilised anti-human IgG (Fc) antibody on CM5 chips; 2-fold dilutions of HCW9302 or IL-2 injected 120 s, dissociation 300 s; regeneration 3 M magnesium chloride; 1:1 fitting model; KD apparent.
The target of assay [2] is Fc-tagged human IL-2Rβγ (Acro, ILG-H5254) (human) (UniProt P14784). The assay is described as above.
Assay [3] deals with Fc-tagged human IL-2Rαβγ (Acro, ILG-H5257) (human) (UniProt P01589). The description is as above.
Assay [4] has as its target His-tagged mouse IL-2Rα (Acro, ILG-M52H9) (mouse) (UniProt P01590). In words: SPR; His-tagged human, mouse or cynomolgus IL-2Rα chemically immobilised by amine coupling on CM5 chips; 2-fold dilutions of HCW9302 or IL-2 injected 90 s, dissociation 210 s; regeneration 3 M magnesium chloride; 1:1 fitting model; KD apparent.
Assay [5] addresses His-tagged human IL-2Rα (Acro, ILA-H5251) (human) (UniProt P01589). The description is as above.
In assay [6] the target is His-tagged cynomolgus IL-2Rα (Sino, 90265-C08H) (cynomolgus monkey). Described as above.
Assay [7] addresses HCW9302 (IL-2/TF/IL-2 fusion protein) (human) (UniProt P13726). Kind of assay: SEC; HPLC-SEC profile of purified native HCW9302. A general note: In gel filtration, larger molecules generally elute earlier.
Assay [8] addresses Fc-tagged human IL-2Rαβγ (Acro, ILG-H5257) (human) (UniProt P01589).

Chain of UniProt P14784 (P14784 27-240, chain 1 of 2): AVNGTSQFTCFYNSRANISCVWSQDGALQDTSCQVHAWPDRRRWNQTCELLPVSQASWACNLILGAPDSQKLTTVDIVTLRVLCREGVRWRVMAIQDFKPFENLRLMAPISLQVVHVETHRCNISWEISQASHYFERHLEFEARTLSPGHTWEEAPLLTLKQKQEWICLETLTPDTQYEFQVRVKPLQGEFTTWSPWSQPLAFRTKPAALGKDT
Chain of UniProt P14784 (P31785 23-262, chain 2 of 2, further chain): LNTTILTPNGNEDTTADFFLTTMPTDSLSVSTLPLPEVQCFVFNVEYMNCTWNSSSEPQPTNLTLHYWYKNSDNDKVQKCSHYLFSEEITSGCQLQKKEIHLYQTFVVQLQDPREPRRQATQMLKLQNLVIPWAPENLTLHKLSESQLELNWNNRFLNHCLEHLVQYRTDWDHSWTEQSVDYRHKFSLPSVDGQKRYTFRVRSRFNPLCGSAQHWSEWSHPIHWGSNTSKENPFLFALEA
Chain of UniProt P01590 (P01590 22-236): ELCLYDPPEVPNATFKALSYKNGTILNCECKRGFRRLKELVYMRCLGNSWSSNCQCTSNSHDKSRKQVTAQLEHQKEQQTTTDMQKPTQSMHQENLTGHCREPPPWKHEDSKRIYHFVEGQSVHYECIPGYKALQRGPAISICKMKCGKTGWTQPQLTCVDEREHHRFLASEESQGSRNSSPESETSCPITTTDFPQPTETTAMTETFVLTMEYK

By koff is commonly meant the first-order rate constant of dissociation. The term kon denotes the second-order rate constant of association. The term stoichiometry N denotes the number of molecules, sites or subunits per partner or assembly. With “HCW9302 (IL-2/TF/IL-2 fusion protein) (from UniProt P13726 33-251) (ligand)”, the Kd amounted to 1.99 pM in assay [1]; 0.117 nM in assay [2]; 2.01 pM in assay [3]; 0.296 nM in assay [4]; 0.0132 nM in assay [5]; 0.00319 nM in assay [6]. Also, the koff in assay [1] came out at 0.107 s⁻¹; in assay [2], 0.00017 s⁻¹; in assay [3] it was 0.000771 s⁻¹; in assay [4], 0.000918 s⁻¹; in assay [5], 0.00289 s⁻¹; in assay [6], 0.000457 s⁻¹. For the same substance, the kon in assay [2] was 1.45e+06 M⁻¹ s⁻¹; in assay [3], 3.83e+08 M⁻¹ s⁻¹; in assay [4], 3.1e+06 M⁻¹ s⁻¹; in assay [5] it was 2.18e+08 M⁻¹ s⁻¹; in assay [6], 1.43e+08 M⁻¹ s⁻¹. The same substance showed a stoichiometry N in assay [7] of 2. This substance registered a phosphorylation of STAT5 in human Treg cells (PBMC, 30 min, 0.15-15000 pM), half-maximal stimulation (EC50) in assay [8] of 6.12 pM.
For the substance “human IL-2 (Acro, S13-H5113) (from UniProt P60568 21-153) (ligand)”, in assay [6], the Kd was 16.3 nM, the koff came to 0.212 s⁻¹ and the kon was 1.3e+08 M⁻¹ s⁻¹.
“aldesleukin (Proleukin), clinical grade rhIL-2 (from UniProt P60568 21-153) (ligand)”: the phosphorylation of STAT5 in human Treg cells (PBMC, 30 min, 0.15-15000 pM), half-maximal stimulation (EC50) in assay [8] was 43.1 pM.
